Assay results reported in the supplement of paper PMC9170038.

Test system: MS2 coat protein
Assay: apparent KD of MS2 coat protein; designed switch direction (-1 OFF switch, 1 ON switch): 1; higher = weaker reporter binding
In short: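 Designed RNA switches sharing common flanks were transcribed on Illumina chips by stalled E. coli RNA polymerase. They were titrated with SNAP-549-labelled MS2 coat protein, from 0.7 or 1.5 nM doubling to 3 µM, in Tris-HCl pH 7.5 buffer with KCl, MgCl2, BSA, DTT, tRNA and Tween-20. Titrations ran without input, with 200 uM small-molecule ligand, or with an oligonucleotide input. The apparent KD of each design is the median over its clusters, after curve-fitting of normalised cluster fluorescence.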

[1] = Eterna round: R95, input ligand: FMN 200 uM
[2] = Eterna round: R95, input ligand: microRNA oligo, concentration not stated
[3] = Eterna round: R95, input ligand: none
[4] = input ligand: microRNA oligo, concentration not stated

| Sequence | apparent KD of MS2 coat protein [1] [nM] | apparent KD of MS2 coat protein [2] [nM] | apparent KD of MS2 coat protein [3] [nM] | apparent KD of MS2 coat protein (input ligand: FMN 200 uM) [nM] | apparent KD of MS2 coat protein [4] [nM] | apparent KD of MS2 coat protein (input ligand: none) [nM] |
| --- | --- | --- | --- | --- | --- | --- |
| GAGGAUGAUUUACAGGAUAUAUAGGAGAUGACAUGAGGAUCACCCAUGUAAGAGAGAGGAGGGAGAUAGAAGGGUAAGGGAUGUG [JR_SS2_Sub42] (puzzle: Same State 2) | 44.3 | 42.2 | 59.5 | – | – | – |
| AGAAAACAUGAGGAUCACCCAUGUAUAGUGAAUACAGGAUAUCACCGGCUGAAAAGCCGGUGAGAAGGGUGAUCGC [Atorenri] (puzzle: Same State 1) | 149 | 18.6 | 7.7 | – | – | – |
| CUGUGUUGCGGGCAGGAUAUGUAUUGGAGUACAUGAGGAUCACCCAUGUGCGGGUGUUUCACCCGACAGAAGGGCCAAUCGCGAC [JL-ss2-3.22 ViennaUCT mod] (puzzle: Same State 2) | – | 76.7 | – | – | – | – |
| UGUCCAGCCUGAGCUGGACAAAAGCAUGUACAUGAGGAUCACCCAUGUUCAUGUACAAGCUUUUUGCUCGUCUUACA [salish99_208a_r3_080] (puzzle: Sensor for hsa-mir-208a) | 347 | 15.2 | 529 | – | – | – |
| GUUACAUGAGGAUCACCCAUGUGUGUGUGGGAGUGAGUGGCUUAGGAUAUCUAUGAUUUAAGUUAAGAGAAGGGAGAUUGUUGU [SS-NG3-LRO04] (Eterna round: R96, puzzle: Same State NG 3) | – | – | – | 441 | 330 | 344 |
| UCGGGCGUACUUGCUGACAUGAGGAUCACCCAUGUCCUUGGACAGGAUAUGGUUCCGUUUCGGUUCCAGAAGGUCCUGGCUGCU [salish99_SSNG3_r04_320] (Eterna round: R96, puzzle: Same State NG 3) | – | – | – | 31.8 | 25.5 | 40.9 |
| GGUGGGUUGCUACCGACACAUGAGGAUCACCCAUGUUUUGGGAAGGAUAUGGUACCUAUUUGGUACCAGAAGGUCCCGUUGGUG [salish99_SSNG3_r04_707] (Eterna round: R96, puzzle: Same State NG 3) | – | – | – | 136 | 136 | 133 |
| UUCUCCUUUUUUUACAUGAGGAUCACCCAUGUUUACCCUACGUAGGAUAUCGAUGAGUGUUUGUACGAGAAGGACGUAGUAAGU [JR_SSND3_Sub058] (Eterna round: R96, puzzle: Same State NG 3) | – | – | – | 37.4 | 106 | 137 |
| AGUCCAGCAUAAGCUGGACAAAAGCAUGUACAUGAGGAUCACCCAUGUUCAUGUACAAGCUUUUUGCUCGUCAAAAG [Mat - hsa-mir-208a - Mod of JL - 71] (puzzle: Sensor for hsa-mir-208a) | 215 | 22.6 | 297 | – | – | – |
| AAAAUGUGAUGUCACAUGAGGAUCACCCAUGUGGUGACAACUAAGGAUAUAACGAACCAAGGCGAUUAGAAGGUAGGAUCACAA [AK SSNG3-V2-17] (Eterna round: R96, puzzle: Same State NG 3) | – | – | – | 102 | 120 | 207 |
| GUCAGGUAAGCUUUUUUCUCGUAGUGUAAACAUGAGGAUCACCCAUGUGCUCACCCUGGAUCUUUGGAUCGCAGAAA [Atormace] (puzzle: Sensor for hsa-mir-208a) | 16.5 | 14.3 | 17.1 | – | – | – |
| AGCUAUUAAUCAGGAUAUAGGGACAUGAGGAUCACCCAUGUGUACAUGAUAAAAUGUGAUCACGUCUAGAAGGGAUUACUAACA [SameState NG2 #39] (Eterna round: R96, puzzle: Same State NG 2) | – | – | – | – | 52.5 | – |
| ACAUGAGACCAAGGAUAUGUUGUACCUACAUGUGACAUGAGGAUCACCCAUGUGGUAAGUAUGAGACAGAAGGUGGAGAUAUGU [Equivalence 27 - Jieux - Same State NG 2] (Eterna round: R96, puzzle: Same State NG 2) | – | – | – | 16.9 | 44.3 | 33.2 |
| ACAUGAGACACAGGAUAUCAUGUACCUACAUGUGACAUGAGGAUCACCCAUGUGGUAAGUAUGACUGAGAAGGGUGAGAUAUGU [Equivalance 89 - Jieux - Same State NG 2] (Eterna round: R96, puzzle: Same State NG 2) | – | – | – | 369 | 394 | 962 |
| AACAAUCUAUCUGAGGAUAUCAUGAUAAUAACAUGAGGAUCACCCAUGUGCAGGAAAACUGCAUAUGAGAAGGCAGAUAGAUUGG [Mat - Same State 2 - Mod - D20] (puzzle: Same State 2) | 100 | 29.4 | 26.5 | – | – | – |
